Our source for the stoichiometry N values is article PMC2171497.

In this experiment the target is 2′,3′-cyclic nucleotide 3′-phosphodiesterase (CNP), endogenous, rat (rat (endogenous in cultured rat OLs and rat brain)) (UniProt P13233). Put plainly: co-IP.
UniProt P13233, sequence (P13233 whole entry): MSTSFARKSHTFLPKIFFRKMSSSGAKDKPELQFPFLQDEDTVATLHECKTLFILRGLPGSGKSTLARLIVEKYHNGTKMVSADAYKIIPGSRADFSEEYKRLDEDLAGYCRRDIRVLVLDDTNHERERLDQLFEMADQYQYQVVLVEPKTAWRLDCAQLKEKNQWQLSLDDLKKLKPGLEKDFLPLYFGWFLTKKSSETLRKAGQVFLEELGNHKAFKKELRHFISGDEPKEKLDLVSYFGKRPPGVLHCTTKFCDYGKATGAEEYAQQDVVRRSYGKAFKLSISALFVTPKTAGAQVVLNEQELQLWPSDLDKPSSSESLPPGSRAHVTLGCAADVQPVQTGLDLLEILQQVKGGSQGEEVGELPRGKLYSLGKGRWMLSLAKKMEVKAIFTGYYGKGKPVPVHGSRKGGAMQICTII

As usually defined, the stoichiometry N is a count of units in the complex or per binding partner. For the substance “tubulin (α- and β-tubulin), endogenous, rat (from UniProt P68370 1-451; Q3KRE8 1-445) (complex)”, the stoichiometry N is 1.
